The target in this experiment is Chicken CapZ (full length α/β) (chicken) (UniProt P13127). Kind of experiment: ITC. On the technique in general: Isothermal titration calorimetry measures the heat released or taken up as one component is titrated into another.

For orientation: Kd means the constant that tells how readily two partners part at equilibrium. The substance “RavB (full length, purified) (natural protein)” came in with a Kd of 10.8 nM.
